# Assay: yeast display, Sf9 membrane polyspecificity reagent, FACS + sequencing; frameworks hold sequencing errors
# Method in brief: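 Genes from sorted yeast were amplified by colony PCR, read by MiSeq 2 × 250 sequencing and filtered on CDR length. These cells carried a synthetic nanobody library in Saccharomyces cerevisiae BJ5465 and were sorted by FACS into low and high (top ~1%) gates on anti-HA and streptavidin fluorescence. Polyreactivity is labelled according to the gate of origin.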
row,Sequence,polyreactivity (PSR sort gate)
1,QVQLVESGGGLVQAGGSLRLSCAASGFIFGYYAMGWYRQAPGKERELVAAISSGGTTTYYADSVKGRFTISRDNAKNTVYLQMNSLKPEDTAVYYCAKVSQRRVDNSDYDYWGQGTQVTVSS,high polyreactivity
2,QVQLVESGGGLVQAGGSLRLSCAASGFIFGYYAMGWYRQAPGKERELVAAISSRGGSTYYADSVKGRFTISRDNAKNTVYLQMNSLKPEDTAVYYCAVRRVSFRHKFGQYDYWGQGTQVTVSA,high polyreactivity
3,QVQLVESGGGLVQAGGSLRLSCAASGFIFGYYAMGWYRQAPGKERELVAAISTRGSTYYADSVKGRFTISRDNAKYTVYLQMNSLKPEDTAVYYCNAGWGYRRDYWGQGTQVTVSS,high polyreactivity
4,QVQLVESGGGLVQAGGSLRLSCAASGFIFGYYAMGWYRQAPGKERELVAAISWNGGSTYYADSVKGRFTISRDNAKNTVYLQMNSLKPEDTAVYYCAADGYETYYDYDYWGQGTQVTVSS,high polyreactivity
5,QVQLVESGGGLVQAGGSLRLSCAASGFIFGYYAMGWYRQAPGKERELVAAISYSGGSTYYADSVKGRFTISRDNAKNTVYLQMNSLKPEDTAVYYCAKYGQSNYDWGQGTQVTVSS,high polyreactivity
6,QVQLVESGGGLVQAGGSLRLSCAASGFIFGYYAMGWYRQAPGKERELVAAITTSAASTYYADSVKGRFTISRDNAKNTVYLQMNSLKPEDTAVYYCNAVLYKVSISEYDYWGQGTQVTVSS,high polyreactivity
7,QVQLVESGGGLVQAGGSLRLSCAASGFIFGYYGMGWYRQAPGKERELVAAITDGGSTTYADSVKGRFTISRDNAKNTVYLQMNSLKPEDTAVYYCNAEAGGFDYYGKTYRYGDYWGQGTQVTVSS,low polyreactivity
8,QVQLVESGGGLVQAGGSLRLSCAASGFIFHGYAMGWYRQAPGKERELVAAISGTGGSTYYADSVKGRFTISRDNAKNTVYLQMNSLKPEDTAVYYYKAERSGNGYWGQGTQVTVSS,high polyreactivity
9,QVQLVESGGGLVQAGGSLRLSCAASGFIFHLNAMGWYRQAPGKERELVAAIRSSGGSTYYADSVKGRFTISRDIAKNTVYFQMISMKREDTAVYYCAARGSSGLTRRGYYWGQGTQVNVSS,high polyreactivity
10,QVQLVESGGGLVQAGGSLRLSCAASGFIFHLYGMGWYRQATGKERELVAAISSGGRTYYADSVKGRFTISRDNAKNTVYLQMNSLKPEDTAVYYCAVYVAYLYSYYYWGQGTQVTVSS,low polyreactivity
11,QVQLVESGGGLVQAGGSLRLSCAASGFIFHRNAMGWYRPAPGKERELVASITKRGGNTYYADSVKGRFTISRDNAKNTVYLQMNSLKPEDTAVYYCATQLWGWDWKRDYWGQGTQVTVSS,high polyreactivity
12,QVQLVESGGGLVQAGGSLRLSCAASGFIFHYYAMGRYRQAPGKERELVAAISWNGGSTNYSDSVKGRFTISRDNAKNTVYLQMNSLKPEDTAVYYCATTDPYYDVDYWGQGTQVTVSS,low polyreactivity
13,QVQLVESGGGLVQAGGSLRLSCAASGFIFIGNTMGWYRQAPGKDRELVAAIRWSGGSTYYADSVKGRFTISRDNAKNTVYLQMNSLKPEDTAVYYCAARRWSKTRYYYWGQGTQVTVSS,high polyreactivity
14,QVQLVESGGGLVQAGGSLRLSCAASGFIFIHYAMGWYRQAPGKERELVAAINRRGSRTYYADSVKGRFTISRDNAKNTVYLQMNSLKPEDSAVYYCAAGSRTEYDYWGQGSQVTVSS,high polyreactivity
15,QVQLVESGGGLVQAGGSLRLSCAASGFIFIKYAMGWYRQAPGKERELVAAISSSGGSTYYADSVKGRFTISRDNAKNTVYLQMNSLKPEDTAVYYCAARTYRGLAYDYWGQGTQVTVSS,high polyreactivity
16,QVQLVESGGGLVQAGGSLRLSCAASGFIFIPYAKGWYRQAPGKERELVAAISVSDGTTYYADSVKGRFTISRDNAKNTVYFQMNSLKPEDTAVDYCAARRRAQQGTRDHDYWGQGTQVTVSS,high polyreactivity
17,QVQLVESGGGLVQAGGSLRLSCAASGFIFIRNAMGWYRQAPGKQRELVATIRYSGGNTYYADSVKGRFTISRDNAKNTVYLQMNSLNPEDTAVYYCAAGSGYWGRSPTRCGQGGYWGQGTQVTVSS,high polyreactivity
18,QVQLVESGGGLVQAGGSLRLSCAASGFIFIYDMGWYRQAPGKERELVAAITSSDGSTYYADSVKGRFTISRDNAKNTVYLQMNSLKPEDTAVYYCNAKYPWGNYNSVSYDYWGQGTQVTVSS,high polyreactivity
19,QVQLVESGGGLVQAGGSLRLSCAASGFIFKGYAMGWYRQAPGKERELVATINWSGGRTYYADSVKGRFTISRDNAKNTVYLQMNSLKPEDTAVYYCNVQVGTYAWWYRVGSWYDYWGQGTQVTVSS,high polyreactivity
20,QVQLVESGGGLVQAGGSLRLSCAASGFIFKHYAMGWYRQAPGKERELVAAITSSGGNTYYADSVKGRFTISRDNAKNTVYLQMNSLKPEDTAVYYCNARFRTLYWGQGTQVTVSS,high polyreactivity
21,QVQLVESGGGLVQAGGSLRLSCAASGFIFKLNAMGWYRQAPGKERELVATITRGGDTKYADSVKGRFTISRDNAKNTVYLQMNSLKPEDTAVYYCAAGYPYSYRDYYYWGQGTQVTVSS,high polyreactivity
22,QVQLVESGGGLVQAGGSLRLSCAASGFIFKQYAMGWYRQAPGKERELVAAISWTGGSTYYADSVKGRFTISRDNAKNTVYLQMNSLKPEDTAVYYCAAKRRTRQSYYTEYYWGQGTQVTVSS,high polyreactivity

row,Sequence,polyreactivity (PSR sort gate)
1,QVQLVESGGGLVQAGGSLRLSCAASGFIFKRYAMGWYRQAPGKERELVAPITSNGGRTYYADSVKGRFTISRDNAKNTVYLQMNSLKPEHTAVYYCARDSQYYEQDDYWGQGTQVTVSS,high polyreactivity
2,QVQLVESGGGLVQAGGSLRLSCAASGFIFKRYAMGWYRQAPGKVRELGAAITGSGGSTYYADSVKGRFTISRDNAKNTVYLQMNSLKPEDTAVYYCARGNGGSLDYWGQGTQVTVSS,high polyreactivity
3,QVQLVESGGGLVQAGGSLRLSCAASGFIFKSNGMGRYRPEPGKERELVSAIRRSGGSTYYADSVKGRFSISRDYAKNTFYLQMNSLKPEVTAVYYCGIRRGVYTHWYDYWGQGTQVTVSS,high polyreactivity
4,QVQLVESGGGLVQAGGSLRLSCAASGFIFKWYAMGWYRQAPGKERELVAAISTSGGSTYYADSVKGRFTISRDNAKNTVYLQMNSLKPEDTAVYYCAVLVGRLVWSYNHWGQGTQVTVSS,high polyreactivity
5,QVQLVESGGGLVQAGGSLRLSCAASGFIFKYYAMGWYRQAPGKERELVASISSYGSSTYYADSVKGRFTSSRDSAKNTVYLQLNSVKPEDTAVYYCAAPYNFWNFFDLIYVWDGYDYWGQGTQVTVSS,low polyreactivity
6,QVQLVESGGGLVQAGGSLRLSCAASGFIFLFNAMGWYRQAPGNESELVAAIYDDGSTYYADSVKGRFTLSLDNAKNTVYLHMNSVKPEDTAVYYCAAPRRGRWIRGYLGQGTQVTVSS,high polyreactivity
7,QVQLVESGGGLVQAGGSLRLSCAASGFIFLGNVMGWYRQAPGKERELVAAINWSDGSTYYADSVKGRFTISRDNAKNTVYLQMNSLKPEDTAVYYCNVDAGVEGGTVDYWGQGTQVTVSS,low polyreactivity
8,QVQLVESGGGLVQAGGSLRLSCAASGFIFLGYAMGWYRQAPGKERELVAAISSDSDTNYADSVKGRFTISRDNAKNTVFLQMNSLKPEDTAVYYCNADIDSYREMDYWGQGTLVTVSS,low polyreactivity
9,QVQLVESGGGLVQAGGSLRLSCAASGFIFLKYAMGWYRQAPGKERELVASITSTGGSTYYADSVKGRFTISRDNAKNTVYLQMNSQKPEDTAVYYCARDTVPSSDPWYYAWGGFEFDYWGQGTQVTVSS,low polyreactivity
10,QVQLVESGGGLVQAGGSLRLSCAASGFIFLNYAMGWYRQAPGKERELVAAITSGGNTTYADSVKGRFTISRDNAKNTVYLQMNSLKPEDTAVYYCAADGWRAGPGDYWGQGTQVIVSS,low polyreactivity
11,QVQLVESGGGLVQAGGSLRLSCAASGFIFLPYAMGWYRQAPGKERELVAAITRGGRTYYADSVKGRFTISRDNAKNTVYLQMNSLKPEDTAVYYCAATTYLVWGYNYWGQGTQVTVSS,low polyreactivity
12,QVQLVESGGGLVQAGGSLRLSCAASGFIFLQYVMGWYRQAPGKERELVAAITSGGSTYYADSVKGRFTISRDNAKNTVYLQMNSLKPEDTAVYFCATDVADNTFYALYGYDYWGQGTQVTVSS,low polyreactivity
13,QVQLVESGGGLVQAGGSLRLSCAASGFIFLRYGMGWYRQAPGKERELVASIDSTGGSTYADSVKGRFTISRDNAKNTVYLQMNSLKPEDTAVYYCAAAYYIVSQRDYWGQGTQVTVSS,low polyreactivity
14,QVQLVESGGGLVQAGGSLRLSCAASGFIFLSYAMGWYRPAPGKERELVAAISGRGGSTYYADSVKGRFTISRDNAKNTVYLQMNSLKPEDTAVYYCAARLYRYNYDYWGQGTQVTVSS,high polyreactivity
15,QVQLVESGGGLVQAGGSLRLSCAASGFIFLVNAMGWYRGAPGKERELVAAISKSTGGTYYADSVKGRFTISRDNAKNTVYLQMNSLKPEDTAVYYCAADEVYPVQRDMDYWGQGTQVTVSS,low polyreactivity
16,QVQLVESGGGLVQAGGSLRLSCAASGFIFLYNVMGWYRQAPGKERELVAAISWRGGTYYAHSVKGRFTISRDNAKNTVYLQMNSLKPEDTAVYYCAKKQRYYGRMDYWGQGTQVTVSS,high polyreactivity
17,QVQLVESGGGLVQAGGSLRLSCAASGFIFLYYAMGWYRQAPGKERELVAAISNGGSTYYADSVKGRFTISRDNAKNTVYLQMNSLKPEDTAVYYCAARYGYRYTLKYGYWGQGTQVTVSS,high polyreactivity
18,QVQLVESGGGLVQAGGSLRLSCAASGFIFNAYTMGWYRKAPGKERELFAAISRRGSSTYYADSVKGRFTISRDNAMNTVYLQMNSLKPEDTAVYYCNTRLYARDDSDFDYWGQGPQVTVSS,high polyreactivity
19,QVQLVESGGGLVQAGGSLRLSCAASGFIFNIYAMGWYRQAPGKERELVAAITFSGGSTYYADSVKGRFTISRDNAKNTVYLQMNSLKPEDTAVYYCAADYLSEYTTYDYWGQGTQVTVSS,low polyreactivity
20,QVQLVESGGGLVQAGGSLRLSCAASGFIFNRYAMGWYRQAPGKERELVAAISFSGGSTYYADSVKGRFTISRDNAKNTVYLQMNSLKPEDTAVYYCAASWYRYGYWGQGTQVTVSS,high polyreactivity
21,QVQLVESGGGLVQAGGSLRLSCAASGFIFNRYAMGWYRQAPGKERELVADITGGSTYYADSVKGRFTISRDNAKNTVYLQMNSQKPEDTEVYYCAADRYGFYLESDYWGQGTQVTVSS,low polyreactivity

# — the nanobody polyreactivity screen of Harvey et al. (2022)
